Assay results as given in patent US7422861B2, “Oligonucleotide transfection screening method” (priority 2000, dated 2008).

Test system: SKOV3 (ovarian carcinoma) cells
Test: Apoptosis assay, annexin V and PI staining followed by FACS analysis (FIG. 1B)
Format: cell-based
Settings: SKOV3 cells from the same transfections
Protocol: As a measure of cellular toxicity of the transfection agents, cells from the same transfections were stained with annexin V and PI, followed by FACS analysis (FIG. 1B). The fraction of cells positive for Annexin V, or for Annexin V and PI, are those in early or late stage apoptosis, respectively.
Apoptosis Assay. Following transfection with antisense oligonucleotides and various transfection agents, cells were gently removed from plates using 0.05% trypsin and 2 mM EDTA, washed in a buffer containing 10 mM Hepes pH7.2, 140 mM NaCl, 5 mM CaCl2, and stained with Propidium iodide at a final concentration of 1 μg/ml and Annexin-V-FLUOS (Roche Molecular Biochemicals). Cells were then analyzed for staining with each marker using a Becton Dickinson FACScan.

SMILES | Staining with annexin V or PI (apoptosis)
COc1ccc(CCN(CC(N)=O)C(=O)CN(CCc2ccc(OC)cc2)C(=O)CN(CCN)C(=O)CN(CCc2ccc(OC)cc2)C(=O)CN(CCc2ccc(OC)cc2)C(=O)CN(CCN)C(=O)CN(CCc2ccc(OC)cc2)C(=O)CN(CCc2ccc(OC)cc2)C(=O)CN(CCN)C(=O)CCNC(=O)O[C@H]2CC[C@@]3(C)C(=CC[C@H]4[C@@H]5CC[C@H]([C@H](C)CCCC(C)C)[C@@]5(C)CC[C@@H]43)C2)cc1 [Cholesteroid 1] | negligible staining
CCCCCCCCCCCCCC(=O)OCC(COP(=O)(O)OCCNCC(=O)N(CCN)CC(=O)N(CCc1ccc(OC)cc1)CC(=O)N(CCc1ccc(OC)cc1)CC(=O)N(CCN)CC(=O)N(CCc1ccc(OC)cc1)CC(=O)N(CCc1ccc(OC)cc1)CC(=O)N(CCN)CC(=O)N(CCc1ccc(OC)cc1)CC(=O)N(CCc1ccc(OC)cc1)CC(N)=O)OC(=O)CCCCCCCCCCCCC (centres unmarked) [Lipitoid 1] | negligible staining
